Experiments:
[1] = substrate: N[C@@H](CC(=O)O)C(=O)O; test: purified protein, by the assay type
Source text: For precise measurement of a bimolecular reaction of the type under discussion, the rate of a reaction, at a given "B" concentration should be independent of A's concentration (i.e. at or near apparent Vmax with respect to A).
A. AST cross measurement in an ALT test for a ping pong mechanism, [formula] […] [formula]
Going through the same mathematical explanation: [formula]

[2] = substrate: C[C@H](N)C(=O)O; test: purified protein, by the assay type; settings: other: 15 mM 2-oxoglutarate

Protein | Km ([1]; other: 0.2 mM 2-oxoglutarate) | Km ([1]; other: 15 mM 2-oxoglutarate) | Km [2]
AST (aspartate 2-oxoglutarate aminotransferase) (Homo sapiens) (protein) APPSVFAEVPQAQPVLVFKLTADFREDPDPRKVNLGVGAYRTDDCHPWVLPVVKKVEQKIANDNSLNHEYLPILGLAEFRSCASRLALGDDSPALKEKRVGGVQSLGGTGALRIGADFLARWYNGTNNKNTPVYVSSPTWENHNAVFSAAGFKDIRSYRYWDAEKRGLDLQGFLNDLENAPEFSIVVLHACAHNPTGIDPTPEQWKQIASVMKHRFLFPFFDSAYQGFASGNLERDAWAIRYFVSEGFEFFCAQSFSKNFGLYNERVGNLTVVGKEPESILQVLSQMEKIVRITWSNPPAQGARIVASTLSNPELFEEWTGNVKTMADRILTMRSELRARLEALKTPGTWNHITDQIGMFSFTGLNPKQVEYLVNEKHIYLLPSGRINVSGLTTKNLDYVATSIHEAVTKIQ | 0.91 mM | 10 mM | 
ALT (alanine 2-oxoglutarate aminotransferase) (Homo sapiens) (protein) ASSTGDRSQAVRHGLRAKVLTLDGMNPRVRRVEYAVRGPIVQRALELEQELRQGVKKPFTEVIRANIGDAQAMGQRPITFLRQVLALCVNPDLLSSPNFPDDAKKRAERILQACGGHSLGAYSVSSGIQLIREDVARYIERRDGGIPADPNNVFLSTGASDAIVTVLKLLVAGEGHTRTGVLIPIPQYPLYSATLAELGAVQVDYYLDEERAWALDVAELHRALGQARDHCRPRALCVINPGNPTGQVQTRECIEAVIRFAFEERLFLLADEVYQDNVYAAGSQFHSFKKVLMEMGPPYAGQQELASFHSTSKGYMGECGFRGGYVEVVNMDAAVQQQMLKLMSVRLCPPVPGQALLDLVVSPPAPTDPSFAQFQAEKQAVLAELAAKAKLTEQVFNEAPGISCNPVQGAMYSFPRVQLPPRAVERAQELGLAPDMFFCLRLLEETGICVVPGSGFGQREGTYHFRMTILPPLEKLRLLLEKLSRFHAKFTLEYS |  |  | 18.1 mM

From patent US4235962A, “Combination kit for transaminase assay of a body fluid” (The Dow Chemical Company, priority 1978, dated 1980)
